Assay results from the supplement of paper PMC10724198.
± gives the standard deviation of the averaged measurements.

Test system: Saccharomyces cerevisiae
Experiment: protein stability index of tFT-peptide fusion (C-terminal peptide) (PSI (0-1 scale)); higher = more stable (slower turnover)
Settings: genetic background: wild type; temperature: 30 C
Procedure: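 Multiplexed protein stability (MPS) profiling in S. cerevisiae. Random 12-aa peptides (tFT-X12 library) are fused to the C-terminus of a sfGFP-mCherry tandem fluorescent timer, after mCherry and a GGGS linker. Cells are FACS-sorted into 8 mCherry/sfGFP bins and deep-sequenced. The protein stability index (PSI) is the read-weighted bin average, scaled from 0 (unstable) to 1 (stable). Only peptides with >10 reads are reported; cells were grown at 30 °C in SC-His with glucose.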
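Also: PSI is a weighted mean of sequencing reads over stability bins, variants kept only with over 10 reads, mCherry proximal and sfGFP distal, peptide attached via GGGS linker.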

Row | Sequence | protein stability index
1 | SLFASTFFVWPS | 0.725 ± 0.014
2 | QDSANLSPSFPF | 0.724 ± 0.048
3 | PVPRNRQRWREP | 0.663 ± 0.017
4 | YLSLPTSISLSS | 0.693 ± 0.016
5 | LLYANDPTRPVI | 0.652 ± 0.015
6 | GVGLIGVLTCGL | 0.636 ± 0.02
7 | PVRSPPPLPSPP | 0.653 ± 0.037
8 | DLVSVVGRGIVL | 0.675 ± 0.026
9 | PPPPGLPSSPPP | 0.625 ± 0.051
10 | TSTTGLHVSAMS | 0.727 ± 0.021
11 | IASASGAQAGAR | 0.636 ± 0.017
12 | RVVHKIFGRRVT | 0.6873 ± 0.0049
13 | PPPAPPPPLPPR | 0.688 ± 0.028
14 | PPPLPSPLPLPP | 0.644 ± 0.033
15 | SLASPPPLHCTL | 0.659 ± 0.034
16 | SRNVGRWSLRVV | 0.632 ± 0.024
17 | PRSSTSFLPSFL | 0.678 ± 0.064
18 | SFGGGLIGAGVT | 0.698 ± 0.082
19 | RGGEGTQRRKLR | 0.717 ± 0.077
20 | RWCEWYDMNTII | 0.636 ± 0.02
21 | LRSLVRSRPAPP | 0.6744 ± 0.0042

Row | Sequence | protein stability index
22 | VQTLYSQLPALR | 0.78 ± 0.069
23 | YGAGLRIGQFRC | 0.747 ± 0.1
24 | KDNCHSNQRELT | 0.663 ± 0.046
25 | YCWGYVVARPSV | 0.695 ± 0.017
26 | SPRLLHPLPSFL | 0.7114 ± 0.0066
27 | SWYAGGRRWIVV | 0.608 ± 0.022
28 | NGQVAGVGNVAW | 0.678 ± 0.015
29 | VVVRRSEVGGRV | 0.65 ± 0.095
30 | VREQRLPLARRV | 0.706 ± 0.07
31 | RKYKNKRSKKEK | 0.755 ± 0.1
32 | LSGYIFFSFRSF | 0.505 ± 0.01
33 | CGFGVSHASRIF | 0.78 ± 0.012
34 | APSPPRAPLPPA | 0.689 ± 0.047
35 | FFRDDNRDHKRT | 0.689 ± 0.017
36 | KKKANEMGKNRE | 0.715 ± 0.028
37 | LAPPHLPPPLHK | 0.678 ± 0.053
38 | PPPRPPHAPFSL | 0.702 ± 0.039
39 | ALFCLLLPPPSP | 0.724 ± 0.008
40 | GLGGNVLRVIFA | 0.561 ± 0.021
41 | SWFYTQSEKTLS | 0.7798 ± 0.005
42 | QKKPEMLNKKSY | 0.639 ± 0.015

Row | Sequence | protein stability index
43 | SVPLTPKTPPPP | 0.701 ± 0.049
44 | CQPNRKRETRGN | 0.732 ± 0.064
45 | LLFRPTPCLPPL | 0.686 ± 0.022
46 | EGGFGSVLGGRG | 0.724 ± 0.058
47 | RSSVTIIGDINK | 0.619 ± 0.016
48 | SRKASWECVRGG | 0.699 ± 0.015
49 | CVPLGCDWRGLI | 0.6418 ± 0.0058
50 | VPITLRFSFLTP | 0.598 ± 0.073
51 | ISPTPPAPSRPS | 0.688 ± 0.015
52 | GSTLWGMAWGAR | 0.694 ± 0.017
53 | PSCFNAPRHPPT | 0.749 ± 0.076
54 | SRSPRSRSRHES | 0.69769 ± 0.00032
55 | VGDRCDECGFWA | 0.699 ± 0.0043
56 | RAKVEQTGQKTV | 0.707 ± 0.011
57 | SSSLPPSHFYPP | 0.718 ± 0.064
58 | PPLFTLSFSHFV | 0.679 ± 0.021
59 | VFSPVLVCKMGE | 0.698 ± 0.024
60 | GKKRANQSRSLP | 0.76 ± 0.19
61 | RGPGAWFVSWWA | 0.7886 ± 0.0029
62 | LARGPDETPAGA | 0.668 ± 0.18
63 | FLQHPPHVLHPY | 0.7013 ± 0.0069

Row | Sequence | protein stability index
64 | PCPLPVLDASQF | 0.7158 ± 0.0053
65 | PALPPPAPLPLS | 0.67261 ± 0.00022
66 | HKVETHQIIQIK | 0.726 ± 0.043
67 | PDHPTLPRRNPL | 0.743 ± 0.039
68 | GYADDEEEYVTL | 0.737 ± 0.023
69 | WCVCGVWVGLWG | 0.71 ± 0.076
70 | PLSPPPPFPFPP | 0.71 ± 0.064
71 | SSSTPGRATRVS | 0.652 ± 0.034
72 | GTLSLAACLSEN | 0.657 ± 0.077
73 | RLGFCGLGHRCE | 0.677 ± 0.033
74 | VFLRSPSRAPSL | 0.72 ± 0.078
75 | KAPCRVGARKGG | 0.688 ± 0.051
76 | DLVQFATEILMI | 0.612 ± 0.0064
77 | LRSVISLSSLFS | 0.686 ± 0.011
78 | LGSCRCFAFVSL | 0.659 ± 0.023
79 | GTRRHSFCSGTG | 0.703 ± 0.054
80 | PPPSRPPQLHPA | 0.605 ± 0.021
81 | KHKAQQGSHGPQ | 0.616 ± 0.017
